The values below come from publication PMC8287954.

As usually defined, the stoichiometry N is a count of units in the complex or per binding partner. A word on the pKd: it is the Kd on a negative log10 scale, so that one unit is a factor of ten.

pKd: −log10 of the molar value. Where “and” joins values, the source holds several entries; their conditions need not be identical. Identical values can stand only once.

For assay [1], the target named is Ce^2–184-Sp^140–152 chimera•Gemin2 (Caenorhabditis elegans | Schizosaccharomyces pombe | not stated) (UniProt Q09808). The assay can be described thus: SEC-MALS; Superdex 200 10/300 GL, 0.5 ml/min, room temperature (20°C), 50 mM HEPES-NaOH pH 7.5, 250 mM NaCl, 5 mM DTT; self-association of the SMN•G2 unit, (SMN•G2)n. A general note: Size exclusion chromatography separates by hydrodynamic size, large species first.

In assay [2] the target is SMN (SMN•Gemin2 dimer) (Schizosaccharomyces pombe) (UniProt Q09808). The following applies: cited from earlier work.
In assay [3] the target is Sp^1–117-Hs^253–294 chimera•Gemin2 (Schizosaccharomyces pombe | human | not stated) (UniProt Q09808). Description: SEC-MALS; Superdex 200 10/300 GL, 0.5 ml/min, room temperature (20°C), 50 mM HEPES-NaOH pH 7.5, 250 mM NaCl, 5 mM DTT; self-association of the SMN•G2 unit, (SMN•G2)n.
Another assay has as its target hsSMNΔ5(G275S)•Gemin2 (UniProt O14893). Description: SEC-MALS. The following applies: 20°C; peak concentration 0.5 µM; parent: 231 (188-454).
A further assay has as its target hsSMNΔ5(G279C)•Gemin2. The assay can be described thus: SEC-MALS. The note with it: 20°C; peak concentration 0.5 µM; parent: 231 (188-454).
The target in assay [4] is hsSMNΔ5(L260S)•Gemin2, Q16637;O14893. The assay can be described thus: SEC-MALS. The note with it: 20°C; peak concentration 0.3 µM; parent: 231 (188-454).
For assay [5], the target named is hsSMNΔ5(M263R)•Gemin2, Q16637;O14893. Description: SEC-MALS. The following applies: 20°C; peak concentration 0.8 µM; parent: 231 (188-454).
Assay [6] deals with hsSMNΔ5(M263T)•Gemin2, Q16637;O14893. The assay can be described thus: SEC-MALS. The following applies: 20°C; peak concentration 0.5 µM; parent: 231 (188-454).
For the next assay, the target named is hsSMNΔ5(S262G)•Gemin2. Description: SEC-MALS. The note with it: 20°C; peak concentration 0.3 µM; parent: 231 (188-454).
A further assay deals with hsSMNΔ5(S262I)•Gemin2. The assay can be described thus: SEC-MALS. The following applies: 20°C; peak concentration 0.5 µM; parent: 231 (188-454).
Another assay addresses hsSMNΔ5(S266P)•Gemin2. The assay can be described thus: SEC-MALS. The following applies: 20°C; peak concentration 0.2 µM; parent: 231 (188-454).
In assay [7] the target is hsSMNΔ5(Y272C)•Gemin2, Q16637;O14893. The assay can be described thus: SEC-MALS. The note with it: 20°C; peak concentration 0.8 µM; parent: 231 (188-454).
The target in assay [8] is spSMN-GCN4(IL) chimera•Gemin2 (Schizosaccharomyces pombe | S. cerevisiae) (UniProt P0CU08). Description: SEC-MALS + AUC + other: SAXS; spSMN-GCN4 fusions in complex with Gemin2; SEC-MALS, SV-AUC and SAXS named together.

SMN (SMN•Gemin2 dimer), sequence (Q09808 whole entry): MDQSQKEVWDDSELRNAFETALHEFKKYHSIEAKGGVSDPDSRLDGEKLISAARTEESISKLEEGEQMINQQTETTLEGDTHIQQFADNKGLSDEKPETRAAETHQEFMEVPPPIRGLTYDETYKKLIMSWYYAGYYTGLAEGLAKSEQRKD
spSMN-GCN4(IL) chimera•Gemin2, sequence (P0CU08 whole entry, looked up, change not shown): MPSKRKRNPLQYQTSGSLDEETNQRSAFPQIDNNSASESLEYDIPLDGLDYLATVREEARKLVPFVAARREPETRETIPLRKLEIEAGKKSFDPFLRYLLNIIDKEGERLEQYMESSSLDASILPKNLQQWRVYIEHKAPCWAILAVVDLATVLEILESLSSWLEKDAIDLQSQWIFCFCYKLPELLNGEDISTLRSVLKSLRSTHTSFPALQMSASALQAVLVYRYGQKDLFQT
hsSMNΔ5•Gemin2 complex (from UniProt O14893) M263R, sequence (Q16637 whole entry M263R, stated change not applied): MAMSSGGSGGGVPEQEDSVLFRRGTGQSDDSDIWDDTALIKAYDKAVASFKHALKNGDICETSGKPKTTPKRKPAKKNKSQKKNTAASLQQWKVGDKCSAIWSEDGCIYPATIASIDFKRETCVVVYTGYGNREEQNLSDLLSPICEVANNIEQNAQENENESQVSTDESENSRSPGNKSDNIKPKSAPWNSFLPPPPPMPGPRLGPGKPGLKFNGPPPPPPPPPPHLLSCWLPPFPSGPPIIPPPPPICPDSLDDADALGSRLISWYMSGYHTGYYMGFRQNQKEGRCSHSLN
hsSMNΔ5•Gemin2 complex (from UniProt O14893) M263R, sequence (O14893 12-280, stated change not applied): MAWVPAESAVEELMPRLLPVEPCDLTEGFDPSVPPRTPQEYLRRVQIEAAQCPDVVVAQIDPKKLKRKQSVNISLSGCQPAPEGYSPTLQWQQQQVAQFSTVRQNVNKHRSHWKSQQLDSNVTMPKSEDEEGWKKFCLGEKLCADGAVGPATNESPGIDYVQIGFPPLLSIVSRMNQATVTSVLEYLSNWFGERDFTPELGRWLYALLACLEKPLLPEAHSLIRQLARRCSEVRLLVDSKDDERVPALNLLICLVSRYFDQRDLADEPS
hsSMNΔ5•Gemin2 complex (from UniProt O14893) M263T, sequence (Q16637 whole entry M263T, stated change not applied): as the sequence (Q16637 whole entry M263R, stated change not applied) above, with R263T counted along it
hsSMNΔ5•Gemin2 complex (from UniProt O14893) M263T, sequence (O14893 12-280, stated change not applied): as the sequence (O14893 12-280, stated change not applied) above
hsSMNΔ5•Gemin2 complex (from UniProt O14893) Y272C, sequence (Q16637 whole entry Y272C, stated change not applied): as the sequence (Q16637 whole entry M263R, stated change not applied) above, with R263M, Y272C counted along it
hsSMNΔ5•Gemin2 complex (from UniProt O14893) Y272C, sequence (O14893 12-280, stated change not applied): as the sequence (O14893 12-280, stated change not applied) above
hsSMNΔ5•Gemin2 complex (from UniProt O14893) L260S, sequence (Q16637 whole entry L260S, stated change not applied): as the sequence (Q16637 whole entry M263R, stated change not applied) above, with L260S, R263M counted along it
hsSMNΔ5•Gemin2 complex (from UniProt O14893) L260S, sequence (O14893 12-280, stated change not applied): as the sequence (O14893 12-280, stated change not applied) above
hsSMNΔ5•Gemin2 complex (from UniProt O14893) G275S, sequence (O14893 whole entry, looked up, stated change not applied, one chain of several): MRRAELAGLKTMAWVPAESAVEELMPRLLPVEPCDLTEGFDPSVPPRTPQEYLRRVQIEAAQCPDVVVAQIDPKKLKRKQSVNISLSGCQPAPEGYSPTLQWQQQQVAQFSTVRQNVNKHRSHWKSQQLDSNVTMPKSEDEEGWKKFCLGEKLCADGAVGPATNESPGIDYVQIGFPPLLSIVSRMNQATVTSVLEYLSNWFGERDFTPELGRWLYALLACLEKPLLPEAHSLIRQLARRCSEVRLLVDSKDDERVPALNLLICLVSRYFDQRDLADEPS
hsSMNΔ5•Gemin2 complex (from UniProt O14893) S266P, sequence (O14893 whole entry, looked up, stated change not applied, one chain of several): as above
hsSMNΔ5•Gemin2 complex (from UniProt O14893) S262I, sequence (O14893 whole entry, looked up, stated change not applied, one chain of several): as above
hsSMNΔ5•Gemin2 complex (from UniProt O14893) S262G, sequence (O14893 whole entry, looked up, stated change not applied, one chain of several): as above
hsSMNΔ5(G275S)•Gemin2, sequence (O14893 whole entry, looked up, stated change not applied): as the sequence (O14893 whole entry, looked up, stated change not applied, one chain of several) above
hsSMNΔ5•Gemin2 complex (from UniProt O14893) G279C, sequence (O14893 whole entry, looked up, stated change not applied, one chain of several): as above

In the case of “Ce^2–184-Sp^140–152 chimera•Gemin2 (from UniProt Q09808 140-152) (complex)”, the stoichiometry N in assay [1] came out at 2.

Regarding “SMN (SMN•Gemin2 dimer) (from UniProt Q09808)”, the pKd in assay [2] is 6.00. For the substance “Sp^1–117-Hs^253–294 chimera•Gemin2 (from UniProt Q09808 1-117; Q16637 253-294) (complex)”, the stoichiometry N in assay [3] was 4 and 8. Consider “hsSMNΔ5•Gemin2 complex (from UniProt O14893) G275S”, for which the other: SEC-MALS Mw with hsSMNΔ5(G275S)•Gemin2 came out at 58. Consider “hsSMNΔ5•Gemin2 complex (from UniProt O14893) G279C”, for which the other: SEC-MALS Mw with hsSMNΔ5(G279C)•Gemin2 is 586. As to “hsSMNΔ5•Gemin2 complex (from UniProt O14893) L260S”, the other: SEC-MALS Mw in [4] worked out at 124. For the substance “hsSMNΔ5•Gemin2 complex (from UniProt O14893) M263R”, the other: SEC-MALS Mw in assay [5] was 113. Turning to “hsSMNΔ5•Gemin2 complex (from UniProt O14893) M263T”, the other: SEC-MALS Mw in assay [6] amounted to 115. In the case of “hsSMNΔ5•Gemin2 complex (from UniProt O14893) S262G”, the other: SEC-MALS Mw with hsSMNΔ5(S262G)•Gemin2 came to 275. Consider “hsSMNΔ5•Gemin2 complex (from UniProt O14893) S262I”, for which the other: SEC-MALS Mw with hsSMNΔ5(S262I)•Gemin2 came to 306. For the substance “hsSMNΔ5•Gemin2 complex (from UniProt O14893) S266P”, in the assay with hsSMNΔ5(S266P)•Gemin2, the other: SEC-MALS Mw was 99. Consider “hsSMNΔ5•Gemin2 complex (from UniProt O14893) Y272C”, for which, in [7], the other: SEC-MALS Mw turned out to be 78. “spSMN-GCN4(IL) chimera•Gemin2 (from UniProt P0CU08 1-235) (complex)”: in assay [8], the stoichiometry N is 2.
